Test results published in the supplement of paper PMC9732359.
± gives the uncertainty stated by the source.

Test: protein stability index of a GFP-peptide fusion (yeast GPS) (PSI 1-4); higher = more stable; sorted into four equal gates, so the index is relative within each strain
Procedure, shortened: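 Tiled 17-residue peptides from yeast proteins were fused downstream of GFP on a plasmid that also expresses Cherry, and the pooled library was carried in yeast. Mid-log cultures grown in leucine-free medium were sorted into four equal gates by GFP/Cherry fluorescence ratio. Plasmids from each gate were PCR-amplified and Illumina-sequenced, and reads were assigned to strains by barcodes. Each peptide's protein stability index is the sum, over gates, of the gate's read frequency multiplied by its gate number.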

Row | Sequence | protein stability index (doa10∆) | protein stability index (pdr5∆) | protein stability index (san1∆) | protein stability index (ubr1∆)
1 | VDSGEERNEQEREIMND [SWI3] | 3.42 ± 0.069 | 3.26 ± 0.064 | 3.02 ± 0.079 | 3.24 ± 0.11
2 | YEHNGRTLEAITATLVG [CSL4] | 2.03 ± 0.051 | 2.05 ± 0.051 | 1.83 ± 0.066 | 2.04 ± 0.038
3 | SNDIIDKPYLLRIVTHL [YDL116W/NUP84] | 1.93 ± 0.11 | 1.99 ± 0.09 | 3.09 ± 0.15 | 1.93 ± 0.076
4 | KTAFKPHELTESVLPAA [QCR2] | 2.36 ± 0.049 | 2.69 ± 0.051 | 2.62 ± 0.057 | 2.8 ± 0.038
5 | YPPMPFDGFLFGSRVMI [FAS1] | 2.64 ± 0.075 | 2.75 ± 0.071 | 2.53 ± 0.11 | 2.54 ± 0.048
6 | ALAGGKKSKKKWSKKSM [RPS25A] | 3.45 ± 0.12 | 3.42 ± 0.17 | 3.23 ± 0.16 | 3.63 ± 0.09
7 | IELDQVLNMLYWVPDWD [RPO21] | 2.84 ± 0.095 | 2.32 ± 0.068 | 2.17 ± 0.11 | 2.51 ± 0.057
8 | GCIPGNRKRIVTLRKSL [RPL3] | 1.38 ± 0.069 | 1.5 ± 0.083 | 1.6 ± 0.2 | 1.26 ± 0.061
9 | TSVTRRSPVFALNMLPS [GRR1] | 1.45 ± 0.038 | 1.61 ± 0.037 | 1.51 ± 0.061 | 1.73 ± 0.033
10 | AFKSVVSTETFEQPSQR [RPL27A] | 2.88 ± 0.062 | 2.82 ± 0.059 | 2.71 ± 0.053 | 3.11 ± 0.067
11 | FDSLIKVQISKIPILAQ [RPN9] | 2.69 ± 0.081 | 1.8 ± 0.056 | 2.59 ± 0.094 | 1.96 ± 0.081
12 | LSEDKKKLDYVLALKVE [RPS9A] | 1.31 ± 0.17 | 2.22 ± 0.23 | 1.41 ± 0.16 | 1.49 ± 0.29
13 | EDFRIQFKTTIKDTAND [UBP6] | 2.49 ± 0.067 | 2.47 ± 0.07 | 2.16 ± 0.063 | 2.43 ± 0.054
14 | EVTKLLKNEGIDLDHKR [SMC4] | 3.08 ± 0.12 | 3.2 ± 0.17 |  | 3.55 ± 0.1
15 | GLQDEIMKIGGIKLQMQ [SMC4] | 2.8 ± 0.071 | 3.13 ± 0.053 | 3.02 ± 0.058 | 3.17 ± 0.089
16 | QERNKIHQYLFQEGVVV [RPS10B] | 1.27 ± 0.06 | 1.39 ± 0.044 | 1.45 ± 0.09 | 1.45 ± 0.037
17 | GSLALLKLSMADYNGAL [POP4] | 2.33 ± 0.046 | 2.67 ± 0.058 | 2.48 ± 0.054 | 2.38 ± 0.037
18 | KLKEYLDLVARTATLSN [YDL116W/NUP84] | 2.63 ± 0.23 | 2.88 ± 0.16 | 2.99 ± 0.1 | 2.74 ± 0.15
19 | QGIVPDIIMNPHGFPSR [RET1] | 2.64 ± 0.05 | 2.76 ± 0.057 | 2.74 ± 0.042 | 2.56 ± 0.037
20 | DMGMQQELCYPDENHDN [BRN1] | 3.22 ± 0.073 | 3.28 ± 0.06 | 2.99 ± 0.059 | 3.33 ± 0.055
21 | NPSNTPDKDYLLSIPIS [FAS1] | 2.89 ± 0.078 | 3.1 ± 0.079 | 2.88 ± 0.054 | 2.82 ± 0.066
22 | SRTATWLKNKFAEENIT [BRR2] | 1.69 ± 0.052 | 1.73 ± 0.037 | 2.23 ± 0.064 | 1.94 ± 0.053
23 | FNRTKGKMVRAQDVALA [PRP8] | 1.86 ± 0.21 | 1.76 ± 0.13 |  | 1.06 ± 0.096
24 | VFDTAITSWYENHNKGK [QCR9] | 2.49 ± 0.16 | 2.96 ± 0.12 | 2.65 ± 0.1 | 2.15 ± 0.073
25 | SAGRLYACISSRPGQSG [RPS8A] | 2.81 ± 0.095 | 3.07 ± 0.093 | 3.13 ± 0.088 | 3.03 ± 0.088
26 | NDWKLETERLISQSQLG [SIN4] | 3.42 ± 0.096 | 3.11 ± 0.14 | 3.3 ± 0.068 | 3.53 ± 0.19
27 | MIQPPQQGQNMSEQQWR [ROX3] | 2.15 ± 0.082 | 2.38 ± 0.06 | 2.39 ± 0.093 | 2.19 ± 0.033

Row | Sequence | protein stability index (doa10∆) | protein stability index (pdr5∆) | protein stability index (san1∆) | protein stability index (ubr1∆)
28 | VTRFTTWNGSPFDNSTE [YJL039C/NUP192] | 2.44 ± 0.079 | 2.17 ± 0.052 | 2.3 ± 0.099 | 2.41 ± 0.067
29 | FLIKASVREINLYMLVT [SSN8] | 1.55 ± 0.063 | 1.43 ± 0.047 | 1.89 ± 0.091 | 1.44 ± 0.052
30 | QDSNVMPGSQINSPMPQ [SNF2] | 3.26 ± 0.2 | 3.12 ± 0.11 | 3.32 ± 0.12 | 3.12 ± 0.17
31 | PVTSIPSTNKKLSISNA [GAL11] | 2.29 ± 0.061 | 2.67 ± 0.056 | 2.53 ± 0.058 | 2.8 ± 0.058
32 | VEKTLLSDVAFYVQDVY [RPO31] | 2.11 ± 0.22 | 3.14 ± 0.23 |  | 2.49 ± 0.15
33 | GELEQAQAWINLGEYYA [RPN7] | 3.58 ± 0.28 | 3.03 ± 0.098 | 3.33 ± 0.1 | 3.26 ± 0.057
34 | HVRKVKLLKQPKFDVGA [RPS1A] | 2.21 ± 0.062 | 2.5 ± 0.085 | 2.28 ± 0.073 | 2.2 ± 0.067
35 | EQFPFYLHDNASKVLLK [IRR1] | 2.45 ± 0.081 | 2.47 ± 0.065 | 1.91 ± 0.075 | 2.41 ± 0.052
36 | EREQCRAGGAAASLIMP [PRE7] | 3.02 ± 0.24 | 2.92 ± 0.19 | 3.43 ± 0.18 | 2.89 ± 0.1
37 | FLDGIYVSHKGFIVEDM [RPL9B] | 2.24 ± 0.13 | 2.86 ± 0.074 | 2.74 ± 0.087 | 2.66 ± 0.13
38 | VTLYWNNAKLLTFMTCN [ESC2] | 1.89 ± 0.041 | 2.09 ± 0.041 | 2.34 ± 0.045 | 2.57 ± 0.029
39 | GIRYIRLKQVFNRALDQ [NNF1] | 1.79 ± 0.035 | 1.95 ± 0.027 | 2.04 ± 0.036 | 2.12 ± 0.025
40 | LTVYLEPGHAADQEQAK [RPO21] | 2.96 ± 0.14 | 2.68 ± 0.1 | 3.05 ± 0.081 | 3.13 ± 0.083
41 | SKGYPIQFLTIGAGVPS [FAS1] | 1.4 ± 0.032 | 1.64 ± 0.045 | 1.34 ± 0.061 | 1.34 ± 0.036
42 | IDDFTTRLWGSVYYHKG [SNU114] | 3.06 ± 0.24 | 3.41 ± 0.17 |  | 3.31 ± 0.13
43 | REVGTKFTTVLAKILAR [ECM29] | 1.39 ± 0.086 | 1.52 ± 0.06 | 1.88 ± 0.097 | 1.44 ± 0.05
44 | DKKLNLNLPLQFSLPNG [SNF12] | 3.04 ± 0.085 | 3.02 ± 0.079 | 2.62 ± 0.074 | 2.7 ± 0.075
45 | ENLVQGNGNVSESDIIN [YCG1] | 3.78 ± 0.29 |  |  | 
46 | ELVKSYSWLLFEASCME [YJR042W/NUP85] | 2.96 ± 0.28 |  | 3.44 ± 0.16 | 2.41 ± 0.19
47 | YSLLLASKGIDRLSLQD [ECM29] | 2.45 ± 0.2 | 3.23 ± 0.16 |  | 2.83 ± 0.11
48 | ENIIIVGGTTSISGFKE [ARP9] | 2.13 ± 0.092 | 2.2 ± 0.06 | 2.64 ± 0.07 | 2.88 ± 0.054
49 | SSTTGMSYVVRILSTLD [RPT3] | 2.31 ± 0.082 | 2.42 ± 0.084 | 2.49 ± 0.053 | 2.91 ± 0.066
50 | GAPGANARMPGMPNMPG [SRP54] | 3.15 ± 0.083 | 3.2 ± 0.28 | 2.92 ± 0.12 | 2.9 ± 0.11
51 | GKGRFQTPAEKHAFMGT [RPL3] | 3.13 ± 0.17 | 3.2 ± 0.061 | 2.97 ± 0.1 | 2.98 ± 0.093
52 | MSAQKAPKWYPSEDVAA [RPL6A] | 2.03 ± 0.12 | 2.35 ± 0.13 | 1.57 ± 0.27 | 2.1 ± 0.071
53 | RCLVAVIQQDKYQKALH [SRP72] | 2.46 ± 0.2 | 2.23 ± 0.07 | 1.85 ± 0.1 | 2.09 ± 0.13
